Reference: publication PMC6715715 (Communications Biology, 2019)
One block for each binder: values may come before it.

Columns and labels:
AtcC-6His (SO_1846) [1] = target: T1, AtcC-6His (SO_1846) (Shewanella oneidensis MR-1, UniProt Q8EFW9 1-298); test: pull-down; conditions: both partners purified
T1 construct: AtcC (SO_1846) of Shewanella oneidensis MR-1, 34 kDa; pBad33-AtcC was made by moving the insert of pET-AtcC, so both give AtcC with a C-terminal 6-His tag; also called AtcC with a 6His-tag; not shown: His6, C-terminal, kept
T1 sequence (looked up): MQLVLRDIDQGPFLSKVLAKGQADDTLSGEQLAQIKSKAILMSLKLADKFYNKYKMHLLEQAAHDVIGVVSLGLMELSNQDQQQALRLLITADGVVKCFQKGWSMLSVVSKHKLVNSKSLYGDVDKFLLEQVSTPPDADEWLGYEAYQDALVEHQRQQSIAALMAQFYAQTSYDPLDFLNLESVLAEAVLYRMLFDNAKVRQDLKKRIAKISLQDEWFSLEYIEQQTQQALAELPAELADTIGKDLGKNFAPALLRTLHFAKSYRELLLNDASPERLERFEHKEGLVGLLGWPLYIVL

AtcC-6His (SO_1846) [2] = target: T1, AtcC-6His (SO_1846); test: ITC; 25 °C, buffer B (50 mM Tris-HCl, 100 mM KCl, 10% glycerol, 1 mM DTT); 285 µM ligand titrated into 36 µM AtcC in the cell; one set of sites model; conditions: both partners purified
[3] = target: DnaK-6His from S. oneidensis (Shewanella oneidensis MR-1, UniProt Q8EHT7 1-639); test: cell-based or functional assay
DnaK-6His from S. oneidensis, sequence (Q8EHT7 whole entry): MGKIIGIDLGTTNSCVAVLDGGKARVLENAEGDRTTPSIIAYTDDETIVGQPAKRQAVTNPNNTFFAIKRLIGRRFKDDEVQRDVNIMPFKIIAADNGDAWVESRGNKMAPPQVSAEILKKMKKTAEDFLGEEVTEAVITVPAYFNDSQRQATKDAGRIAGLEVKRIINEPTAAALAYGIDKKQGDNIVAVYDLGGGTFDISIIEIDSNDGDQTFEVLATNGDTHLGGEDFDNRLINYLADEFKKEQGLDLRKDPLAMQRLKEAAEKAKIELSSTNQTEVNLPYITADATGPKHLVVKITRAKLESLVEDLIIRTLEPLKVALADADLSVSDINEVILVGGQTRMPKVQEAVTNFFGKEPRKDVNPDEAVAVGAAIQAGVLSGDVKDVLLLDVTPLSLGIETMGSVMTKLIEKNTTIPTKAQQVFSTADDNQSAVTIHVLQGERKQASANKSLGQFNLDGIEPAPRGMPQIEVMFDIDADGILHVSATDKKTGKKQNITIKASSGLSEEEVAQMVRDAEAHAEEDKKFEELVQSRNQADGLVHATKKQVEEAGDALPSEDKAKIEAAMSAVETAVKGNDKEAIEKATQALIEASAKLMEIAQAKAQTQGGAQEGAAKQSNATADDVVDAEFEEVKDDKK

- binding result (AtcC-6His (SO_1846) [1]): binds
B1: Strep-AtcB (natural protein, Shewanella oneidensis MR-1, UniProt Q8EFW7 1-252, looked up)
chain: MNTSLIEITVAEIKELADVEPKQASKRFELIATTMNDEQLVEVIEKMDIVTLTQINSHHDISCPSIMSELMTPEQIRDIVCQQPLYWEEKIKNNAEELIQHTFDFLTYLIRIQDSEEKQTAILECIAEDPAGLFYLSIPFIEMMLGEGHDDEDHINDYYDDEEDTDTIGYDSRVASEEAHSFSLDDPRSLMALIHELAPDVEKAIKNLLRNESSGWETIINKFVNELVIQAKEKNQVTDEYAEVDDMFSFLD
notes: AtcB (SO_1848) of Shewanella oneidensis MR-1, 29 kDa; also called AtcB with a Strep-tag; purified AtcB

- Kd (AtcC-6His (SO_1846) [2]): 0.08 ± 0.012 µM
B2: pep21, synthetic peptide corresponding to the last 21 amino acids of AtcJ (peptide)
peptide: NNVIVTDPNSAMRELWDQFYP
notes: last 21 amino acids of AtcJ (SO_1850) of Shewanella oneidensis (94 amino acids; N74 is the first residue of the extension); The methods sentence says 'last 21 amino acids of AtcC'; results and legends say AtcJ; also called the peptide

- Kd (AtcC-6His (SO_1846) [2]): 0.007 ± 0.002 µM
- stoichiometry N (AtcC-6His (SO_1846) [2]): 1
- stimulation of the ATPase activity of DnaK in the presence of GrpE (2 µM) from S. oneidensis [3]: 2.7 fold
B3: AtcJ-6His (Adaptation to cold protein J, SO_1850) (natural protein, Shewanella oneidensis MR-1, UniProt Q8EFW5 1-94, looked up)
chain: MINHFSVLGIKPSAKEDDIKKAYRRLSNKYHPDKLLGASDEEKEQASQQLERVKKAYEVLSDPKLRNAFIRDFNNVIVTDPNSAMRELWDQFYP
notes: AtcJ (SO_1850) of Shewanella oneidensis MR-1, a 94-amino acid J-domain protein (J-domain 1-73 and a C-terminal extension of 21 amino acids); also called wild-type AtcJ; AtcJ-WT
